Peptide text beside a SMILES is read from it. * marks the point of attachment. X1 = Cc1cc[n+]2c(c1)-c1cc(C(=O)*)cc[n+]1[Ir-3]213([c]2c(sc4ccccc24)-c2c4ccccc4cc[n+]21)[c]1c(sc2ccccc12)-c1c2ccccc2cc[n+]13; Isonicotinoyl(2-(4-Me-2-Py)) = Cc1ccnc(-c2cc(C(=O)*)ccn2)c1
Assays:
MDA-MB-231 cells [1] = assay: Cellular uptake mechanism studies (ICP-MS); format: cell-based; conditions: 10 μM
Description: Conjugate 3a-CASP: MDA-MB-231 cells were seeded in a 35-mm tissue culture dish and incubated at 37 °C under a 5% CO2 atmosphere for 48 h. The culture medium was removed and replaced with conjugate 3a-CASP (10 μM) in medium/DMSO (99:1, v/v) at 37 °C under a 5% CO2 atmosphere for 4 or 16 h. In the low-temperature experiments, the cells were preincubated at 4 °C for 1 h prior to incubation with conjugate 3a-CASP (10 μM) in medium/DMSO (99:1, v/v) […]. In the chemical inhibition experiments, the cells were pretreated with EIPA (50 μM) for 1.5 h, Me-β-CD (5 mM) for 1 h, or chlorpromazine (30 μM) for 1 h at 37 °C under a 5% CO2 atmosphere. The cells were then washed with PBS (1 mL × 3) and incubated with conjugate 3a-CASP (10 μM) in medium/DMSO (99:1, v/v) at 37 °C under a 5% CO2 atmosphere for 16 h.
(§1) Conjugate 3a-CYNT: MDA-MB-231 cells were seeded in a 35-mm tissue culture dish and incubated at 37 °C under a 5% CO2 atmosphere for 48 h. The culture medium was removed and replaced with conjugate 3a-CYNT (10 μM) in medium/DMSO (99:1, v/v) at 37 °C under a 5% CO2 atmosphere for 16 h. In the CAIX inhibition experiments, the cells were pretreated with acetazolamide (1 mM) at 37 °C under a 5% CO2 atmosphere for 6 h. The cells were then washed with PBS (1 mL × 3) and incubated with conjugate 3a-CYNT (10 μM) in medium/DMSO (99:1, v/v) at 37 °C under a 5% CO2 atmosphere for 16 h.
as §1, with “Conjugate 3a-CMYI:” for “Conjugate 3a-CYNT:”, “conjugate 3a-CMYI” for “conjugate 3a-CYNT”, “the EGFR” for “the CAIX”, “with gefitinib (50 μM)” for “with acetazolamide (1 mM)”, “for 1” for “for 6”
For all the experiments, after incubation with the conjugates, the medium was removed, and the cells were washed with PBS (1 mL × 3). The cells were then trypsinized and harvested with PBS (1 mL). The cell numbers were measured by a Logos Biosystems LUNA-II automated cell counter. The resultant solution was digested with 65% HNO3 (1 mL) at 70 °C for 2 h, allowed to cool to room temperature, and analyzed by a NexION 2000 ICP-MS (PerkinElmer SCIEX Instruments).

MDA-MB-231 cells [2] = assay: Cellular uptake by ICP-MS; format: cell-based; conditions: 10 μM, 37 °C, 16 h
Description: (§2) HeLa or HEK-293 cells were seeded in a 35-mm tissue culture dish and incubated at 37 °C under a 5% CO2 atmosphere for 48 h. The culture medium was removed and replaced with complexes 1a and 3a (10 μM) in medium/DMSO (99:1, v/v) at 37 °C under a 5% CO2 atmosphere for 2 h. After the treatment, the medium was removed, and the cells were washed with PBS (1 mL × 3). The cells were then trypsinized and harvested with PBS (1 mL). The cell numbers were obtained by a Logos Biosystems LUNA-II automated cell counter. The resultant solution was digested with 65% HNO3 (1 mL) at 70 °C for 2 h, allowed to cool to room temperature, and analyzed by a NexION 2000 ICP-MS (PerkinElmer SCIEX Instruments). For conjugates 3a-Cys, 3a-CASP, 3a-CYNT, and 3a-CMYI, the procedure was similar to that of complexes 1a and 3a, except that MDA-MB-231, MCF-7, and HEK-293 cells were used and the conjugates were incubated for 16 h instead of 2 h before the measurements.

HEK-293 cells [3] = assay: Cellular uptake by ICP-MS; format: cell-based; conditions: 10 μM, 37 °C, 16 h
Description: as §2

MCF-7 cells [4] = assay: Cellular uptake by ICP-MS; format: cell-based; conditions: 10 μM, 37 °C, 16 h
Description: as §2

[5] = 1O2 generation quantum yield; format: physicochemical; conditions: aerated CH3CN/H2O (4:1, v/v), 298 K, λex 450 nm
Description: The ^1O2 generation efficiencies of all complexes were evaluated by monitoring the emission band of ^1O2 centered at ca. […]

MDA-MB-231 cells [6] = assay: MTT (photo)cytotoxicity assay; format: cell-based; conditions: ratio IC50,dark/IC50,light, 24 h incubation
Description: (§3) HeLa or HEK-293 cells were seeded in two 96-well flat-bottomed microplates (ca. 10,000 cells per well) in growth medium (100 μL) and incubated at 37 °C under a 5% CO2 atmosphere for 48 h. The growth medium was removed and replaced with medium/DMSO (100 μL, 99:1, v/v) containing complex 3a with concentrations ranging from 10^–5 to 10^–8 M. Wells containing untreated cells were used as blank control. The microplates were incubated at 37 °C in the dark under a 5% CO2 atmosphere for 2 h. After the treatment, the medium was removed and replenished with phenol red-free growth medium (100 μL). One of the microplates was irradiated at 450 nm (14.6 mW cm^–2) for 10 min with an LED cellular photocytotoxicity irradiator (PURI Materials, Shenzhen, China) and the other microplate was kept in the dark. Then the growth medium was replaced with fresh medium and the cells were further incubated at 37 °C under a 5% CO2 atmosphere for 24 h. The medium in each well was then replaced with fresh medium (90 μL) and 10 μL of MTT (5 mg mL^ –1) in PBS. The microplates were incubated at 37 °C under a 5% CO2 atmosphere for 4 h. The growth medium was then removed, and DMSO (100 μL) was added to each well. After 20 min, the absorbance of the solutions at 570 nm was measured with an Multiskan SkyHigh Microplate Spectrophotometer (Thermo Scientific). The IC50 values of the complex were determined from dose dependence of surviving cells after the treatment using the OriginPro 8.0 software package. For conjugates 3a-CASP, 3a-CYNT, and 3a-CMYI, the procedure was similar to that of complex 3a, except that MDA-MB-231, MCF-7, and HEK-293 cells were used and the conjugates were incubated for 24 h instead of 2 h before irradiation.

HEK-293 cells [7] = assay: MTT (photo)cytotoxicity assay; format: cell-based; conditions: ratio IC50,dark/IC50,light, 24 h incubation
Description: as §3

MCF-7 cells [8] = assay: MTT (photo)cytotoxicity assay; format: cell-based; conditions: ratio IC50,dark/IC50,light, 24 h incubation
Description: as §3

[9] = Reaction kinetics with L-Cys by HPLC; conditions: potassium phosphate buffer (50 mM, pH 7.0)/DMSO (3:2, v/v), TCEP 250 μM, 298 K
Description: The reactivity of the thioester complexes 1a–4a toward N-Cys-containing biomolecules in potassium phosphate buffer (50 mM, pH 7.0)/DMSO (3:2, v/v) containing tris(2-carboxyethyl)-phosphine (TCEP) (250 μM) at 298 K (Scheme ) were investigated using L-Cys as a model. […] The formation of the conjugation products 1a-Cys–4a-Cys was validated by ESI-MS analyses (Figure S7). The isolated conjugate 1a-Cys was further characterized by 1D and 2D COSY ^1H NMR. The signals at δ = 8.18 and 1.89 ppm in the ^1H NMR spectra (Figures S8 and S9) correspond to the CONH and SH protons, respectively, confirming the successful labeling of L-Cys with the thioester complex via the NCL reaction involving transthioesterification and an S → N acyl shift. […]
All reactions were performed on a 100-µL scale. The reaction kinetics of the thioester complexes 1a – 4a (20 µM) and ligand bpy-COSBn (100 µM) with L-Cys (25 µM for the complexes and 250 µM for the ligand) in potassium phosphate buffer (50 mM, pH 7.0)/DMSO (3:2, v/v) containing TCEP (250 µM) at 298 K was measured by reversed-phase high-performance liquid chromatography (RP-HPLC). The reactions at different time points were quenched by the addition of 900 µL of cold H2O/CH3CN (1:1, v/v) and then analyzed by RP-HPLC. […] The second-order rate constants (k2) were determined by fitting the data to the following equation: […]

| Structure (SMILES) | decrease in intracellular iridium content at 4 °C (MDA-MB-231 cells [1]; 4 h, 4 °C versus 37 °C) | reduction of cellular uptake efficiency after chlorpromazine pretreatment (MDA-MB-231 cells [1]; 16 h, chlorpromazine 30 μM, 1 h) | Amount of iridium associated with an average cell (MDA-MB-231 cells [2]) [fmol] | Amount of iridium associated with an average cell (HEK-293 cells [3]) [fmol] | Amount of iridium associated with an average cell (MCF-7 cells [4]) [fmol] | 1O2 generation quantum yield (ΦΔ) [5] | PI (MDA-MB-231 cells [6]) | PI (HEK-293 cells [7]) | PI (MCF-7 cells [8]) | reduction of uptake after gefitinib (EGFR inhibitor) pretreatment (MDA-MB-231 cells [1]; 16 h, gefitinib 50 μM, 1 h) [%] | reduction of uptake after acetazolamide (CAIX inhibitor) pretreatment (MDA-MB-231 cells [1]; 16 h, acetazolamide 1 mM, 6 h) | second-order rate constant (k2) for reaction with L-Cys [9] [M^–1 s^–1] |
| --- | --- | --- | --- | --- | --- | --- | --- | --- | --- | --- | --- | --- |
| Cc1ccnc(-c2cc(C(=O)N[C@@H](CS)C(=O)N[C@@H](C)C(=O)N[C@@H](CO)C(=O)N3CCC[C@H]3C(=O)N[C@@H](CO)C(=O)NCC(=O)N[C@@H](C)C(=O)N[C@@H](CC(C)C)C(=O)N[C@@H](CCCNC(=N)N)C(=O)N[C@@H](CO)C(=O)N[C@@H](CS)C(=O)O)ccn2)c1 [Conjugate 3a-CASP] ({Isonicotinoyl(2-(4-Me-2-Py))}-CASPSGALRSC-OH; C-terminus assumed) | ca. 70% | ca. 30% | 1.6 | 0.074 | 0.10 | 0.24 | >61 | >18 | >18 | – | – | – |
| CC[C@H](C)[C@H](NC(=O)[C@H](Cc1ccc(O)cc1)NC(=O)[C@H](CCSC)NC(=O)[C@H](CS)NC(=O)c1cc[n+]2c(c1)-c1cc(C)cc[n+]1[Ir-3]213([c]2c(sc4ccccc24)-c2c4ccccc4cc[n+]21)[c]1c(sc2ccccc12)-c1c2ccccc2cc[n+]13)C(=O)N[C@@H](CCC(=O)O)C(=O)N[C@@H](C)C(=O)N[C@@H](CC(C)C)C(=O)N[C@@H](CC(=O)O)C(=O)N[C@@H](CCCCN)C(=O)N[C@@H](Cc1ccc(O)cc1)C(=O)N[C@@H](C)C(=O)N[C@@H](CS)C(=O)O [Conjugate 3a-CMYI] (X1-CMYIEALDKYAC-OH; C-terminus assumed) | – | – | 0.21 | 0.033 | 0.074 | 0.20 | >109 | >28 | >25 | ~10 | – | – |
| Cc1cc[n+]2c(c1)-c1cc(C(=O)N[C@@H](CS)C(=O)N[C@@H](Cc3ccc(O)cc3)C(=O)N[C@@H](CC(N)=O)C(=O)N[C@H](C(=O)N[C@@H](CC(N)=O)C(=O)N[C@@H](Cc3c[nH]cn3)C(=O)N[C@H](C(=O)N3CCC[C@H]3C(=O)N[C@@H](CC(C)C)C(=O)N[C@@H](CO)C(=O)N3CCC[C@H]3C(=O)N[C@@H](CCCCN)C(=O)N[C@@H](Cc3ccc(O)cc3)C(=O)O)C(C)C)[C@@H](C)O)cc[n+]1[Ir-3]213([c]2c(sc4ccccc24)-c2c4ccccc4cc[n+]21)[c]1c(sc2ccccc12)-c1c2ccccc2cc[n+]13 [Conjugate 3a-CYNT] (X1-CYNTNHVPLSPKY-OH; C-terminus assumed) | – | – | 1.8 | 0.10 | 0.10 | 0.28 | >139 | >45 | >38 | – | ca. 20% | – |
| Cc1ccnc(-c2cc(C(=O)SCc3ccccc3)ccn2)c1 [bpy-COSBn, S-benzyl 4’-methyl-2,2’-bipyridine-4-carbothioate] | – | – | – | – | – | – | – | – | – | – | – | 11.3 |
